Assay results from the supplement of paper PMC7877785.
± gives the uncertainty stated by the source.

Experiment: self-splicing fitness, log relative to wild type (ln ratio); higher = more splicing; Tetrahymena group I intron in knt gene, E. coli kanamycin selection, DiMSum; sequences stand for … in CUCUCU…GGAGGGAAAAGUUAUCAGGCAUGCACCUGGUAGCUAGUCUUUAAACCAAUAGAUUGCAUCGGUUUAAAAGGCAAGACCGUCAAAUUGCGGGAAAGGGGUCAACAGCCGUUCAGUACCAAGUCUCAGGGGAAACUUUGAGAUGGCCUUGCAAAGGGUAUGGUAAUAAGCUGACGGACAUGGUCCUAACCACGCAGCCAAGUCCUAAGUCAACAGAUCUUCUGUUGAUAUGGAUGCAGUUCACAGACUAAAUGUCGGUCGGGGAAGAUGUAUUCUUCUCAUAAGAUAUAGUCGGACCUCUCCUUAAUGGGAGCUAGCGGAUGAAGUGAUGCAACACUGGAGCCGCUGGGAACUAAUUUGUAUGCGAAAGUAUAUUGAUUAGUUUUGGAGUACUCGUGGUCG
Method in brief: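 DiMSum derived fitness as the error-weighted combination of fold changes across replicates, kanamycin versus no kanamycin, normalised to wild type. E. coli BL21(DE3) held the library, which randomised all eight P1ex-region intron nucleotides within the knt kanamycin-resistance gene on pET-22b(+). Six replicate transformations grew overnight at 37°C or 30°C on LB agar with or without 25 μg/mL kanamycin, also containing 100 μg/mL carbenicillin, 50 μM IPTG and 0.2% rhamnose, and pooled colonies were amplicon-sequenced on an Illumina HiSeq 2500.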

Sequence	self-splicing fitness (ln) (30 °C)	self-splicing fitness (ln) (37 °C)
UGGAAGCAAUAUUACGAAGG	-2.12 ± 0.14	-0.449 ± 0.18
UGGAAGCAAUAUUACGACCG	-0.874 ± 0.13	-0.818 ± 0.17
UGGAAGCAAUAUUACGACUC	-0.463 ± 0.11	-0.577 ± 0.16
UGGAAGCAAUAUUACGAGAC	-3.31 ± 0.48	
UGGAAGCAAUAUUACGCAUG	-1.02 ± 0.096	-0.486 ± 0.12
UGGAAGCAAUAUUACGCCAC	-2.25 ± 0.42	
UGGAAGCAAUAUUACGCCGG	-0.646 ± 0.17	-0.109 ± 0.16
UGGAAGCAAUAUUACGCCGU	-2.99 ± 0.48	-1.87 ± 0.44
UGGAAGCAAUAUUACGCUAA	-1.31 ± 0.32	-0.826 ± 0.38
UGGAAGCAAUAUUACGGAAG	-1.69 ± 0.12	-1.46 ± 0.17
UGGAAGCAAUAUUACGGCAU	-1.94 ± 0.19	-1.13 ± 0.19
UGGAAGCAAUAUUACGGCGU	-1.16 ± 0.13	0.0292 ± 0.12
UGGAAGCAAUAUUACGGCUC	-1.89 ± 0.49	-1.42 ± 0.36
UGGAAGCAAUAUUACGGGAA	-2.15 ± 0.21	-1.19 ± 0.16
UGGAAGCAAUAUUACGGGAG	-1.73 ± 0.37	-2.09 ± 0.25
UGGAAGCAAUAUUACGGGGC	-3.24 ± 0.44	-1.35 ± 0.26
UGGAAGCAAUAUUACGGGGU	-3.12 ± 0.31	-1.99 ± 0.35
UGGAAGCAAUAUUACGGGUA	-1.67 ± 0.13	-1.05 ± 0.13
UGGAAGCAAUAUUACGGUCC	-2.67 ± 0.15	-1.51 ± 0.14
UGGAAGCAAUAUUACGGUGA	-1.41 ± 0.12	-0.4 ± 0.13

Sequence	self-splicing fitness (ln) (30 °C)	self-splicing fitness (ln) (37 °C)
UGGAAGCAAUAUUACGGUGG	-1.42 ± 0.091	-0.276 ± 0.11
UGGAAGCAAUAUUACGGUUC	-3.84 ± 0.2	-2.21 ± 0.2
UGGAAGCAAUAUUACGUAAC	-2.91 ± 0.33	-1.71 ± 0.26
UGGAAGCAAUAUUACGUAAU	-3.03 ± 0.18	-0.953 ± 0.16
UGGAAGCAAUAUUACGUAUA	-2.2 ± 0.26	-1.27 ± 0.2
UGGAAGCAAUAUUACGUCCA	-2.02 ± 0.39	
UGGAAGCAAUAUUACGUCUU	-0.99 ± 0.11	-0.129 ± 0.13
UGGAAGCAAUAUUACGUGAG	-0.593 ± 0.066	-0.141 ± 0.098
UGGAAGCAAUAUUACGUGUC		-2.38 ± 0.18
UGGAAGCAAUAUUACGUUAG	-0.289 ± 0.094	-1.07 ± 0.14
UGGAAGCAAUAUUACGUUUU	-3.63 ± 0.33	-2.43 ± 0.27
UGGCAGCAAUAUUACGAAAU	-3.14 ± 0.29	-0.617 ± 0.19
UGGCAGCAAUAUUACGACAC		-0.701 ± 0.31
UGGCAGCAAUAUUACGAGUU	-4.06 ± 0.3	-2.48 ± 0.24
UGGCAGCAAUAUUACGAUAA	-0.124 ± 0.1	0.0812 ± 0.1
UGGCAGCAAUAUUACGAUGU	-4.09 ± 0.3	-1.67 ± 0.34
UGGCAGCAAUAUUACGAUUA	-0.716 ± 0.089	0.492 ± 0.11
UGGCAGCAAUAUUACGCAAC	-2.74 ± 0.18	-2.14 ± 0.39
UGGCAGCAAUAUUACGCAAU	-2.31 ± 0.099	-1 ± 0.12
UGGCAGCAAUAUUACGCCAA	-1.03 ± 0.13	-0.634 ± 0.12
